# B1: FcRn-15 (designed binder)
# chain: MIPRGLSEAKPATPEIQEIVDKVKPQLEEKTNETYGKLEAVQYKTQVLAHNHRHYSKGSTNYYIKVRAGDNKYMHLKVFNGPAFNDGAVFIADRVLTGYQVDKNKDDELTGFHHHHHH
# notes: also called LGC01-15
# B2: FcRn-16 (designed binder)
# chain: MIPRGLSEAKPATPEIQEIVDKVKPQLEEKTNETYGKLEAVQYKTQVLAKHHHHKHQHSTNYYIKVRAGDNKYMHLKVFNGPVFLHNESHQADRVLTGYQVDKNKDDELTGFHHHHHH
# notes: AFFIMER (stefin A variant)
# B3: FcRn-12 (designed binder)
# chain: MIPRGLSEAKPATPEIQEIVDKVKPQLEEKTNETYGKLEAVQYKTQVLAKVKTHDHQRSTNYYIKVRAGDNKYMHLKVFNGPIHQHHSQDWADRVLTGYQVDKNKDDELTGFHHHHHH
# notes: AFFIMER (stefin A variant)
# B4: FcRn-88 (designed binder)
# chain: MIPRGLSEAKPATPEIQEIVDKVKPQLEEKTNETYGKLEAVQYKTQVLAHHTKHHSRWSTNYYIKVRAGDNKYMHLKVFNGPVNHISHAPIADRVLTGYQVDKNKDDELTGFHHHHHH
# notes: AFFIMER (stefin A variant)
# B5: FcRn-109 (designed binder)
# chain: MIPRGLSEAKPATPEIQEIVDKVKPQLEEKTNETYGKLEAVQYKTQVLARPHNRDSHRSTNYYIKVRAGDNKYMHLKVFNGPDRKHRKHWHADRVLTGYQVDKNKDDELTGFHHHHHH
# notes: AFFIMER (stefin A variant)
# B6: FcRn-48 (designed binder)
# chain: MIPRGLSEAKPATPEIQEIVDKVKPQLEEKTNETYGKLEAVQYKTQVLAKPKYHHHDISTNYYIKVRAGDNKYMHLKVFNGPGHHAKPHRWADRVLTGYQVDKNKDDELTGFHHHHHH
# notes: AFFIMER (stefin A variant)
# B7: FcRn-176 (designed binder)
# chain: MIPRGLSEAKPATPEIQEIVDKVKPQLEEKTNETYGKLEAVQYKTQVLAGRHHESHKSSTNYYIKVRAGDNKYMHLKVFNGPFQHKLHKHHADRVLTGYQVDKNKDDELTGFHHHHHH
# notes: AFFIMER (stefin A variant)
# B8: FcRn-18 (designed binder)
# chain: MIPRGLSEAKPATPEIQEIVDKVKPQLEEKTNETYGKLEAVQYKTQVLAETPHERHKTSTNYYIKVRAGDNKYMHLKVFNGPKRWLKHHAHADRVLTGYQVDKNKDDELTGFHHHHHH
# notes: AFFIMER (stefin A variant)
# B9: FcRn-120 (designed binder)
# chain: MIPRGLSEAKPATPEIQEIVDKVKPQLEEKTNETYGKLEAVQYKTQVLAKHKYHHTGHSTNYYIKVRAGDNKYMHLKVFNGPGQIHKVRSTADRVLTGYQVDKNKDDELTGFHHHHHH
# notes: AFFIMER (stefin A variant)
# B10: FcRn-125 (designed binder)
# chain: MIPRGLSEAKPATPEIQEIVDKVKPQLEEKTNETYGKLEAVQYKTQVLADHRPRHPKHSTNYYIKVRAGDNKYMHLKVFNGPAHKHHLGFKADRVLTGYQVDKNKDDELTGFHHHHHH
# notes: AFFIMER (stefin A variant)
# Target: T1, Hu FcRn (BPS Bioscience) (human, UniProt P55899 24-297; P61769 21-119)
# T1 construct: Bought recombinant protein coated on ELISA plates; also called human FcRn; human neonatal Fc receptor
# Test: ELISA, huFcRn coated, pH 6
# Method: The binding of AFFIMER® to Hu-FcRn was evaluated by enzyme linked immunosorbent assay (ELISA) in 384 well plate format. Hu FcRn (BPS Bioscience) was coated at 5 μg/ml on the plate in 40 mM MES, pH 6. Plates were washed 3 times with 100 μl of washing buffer (PBS, Tween 20 0.05%, pH 6) with a plate washer and saturated with Casein 5% (Sigma) in MES pH6 for 60 minutes at room temperature (25±1° C.). Plates were washed as described previously. AFFIMER® and negative controls (mAb anti hFcRn (clone ADM31), negative controls) were then diluted in duplicate, and loaded on the plate for 90 minutes at room temperature (25±1° C.). Plates were washed 3 times as described previously. Biotinylated polyclonal antibody anti Cystatin (R&D Systems) was then diluted in dilution Buffer (1% casein, 0.05% Tween 20, and 8 mM MES. It is in pH6) and incubated 60 minutes at room temperature (25±1° C.). Plates were washed 3 times as described previously and Streptavidin HRP (N200, thermo-Fisher) was incubated for 30 minutes at room temperature (25±1° C.). Plates were washed and the substrate (TMB, Pierce Thermo-Scientific) was added in the plate for 8±1 minute. The reaction was stopped using an acidic solution and plates were read at 450-630 nm. The EC50 was then calculated using the interpolated non-linear four-parameters standard curve (Table 4).
row,EC50,Binder
1,74.1 nM,B1

# Target: T1, Hu FcRn (BPS Bioscience)
# Test: optimized ELISA on FcRn, pH 6
row,EC50,Binder
1,1020 nM,B2
2,262 nM,B3
3,967 nM,B4
4,570 nM,B5
5,1500 nM,B6
6,4480 nM,B7
7,327 nM,B8

# Target: T1, Hu FcRn (BPS Bioscience)
# Test: optimized ELISA on FcRn, pH 7.4
row,EC50,Binder
1,48600 nM,B2
2,15700 nM,B3
3,23300 nM,B4
4,15700 nM,B5
5,79900 nM,B6
6,78900 nM,B7
7,19700 nM,B8

# Target: T1, Hu FcRn (BPS Bioscience)
# Test: ELISA, huFcRn coated, purified Affimer, pH 6
# Method: The binding of AFFIMER® to hu-FcRn was evaluated by enzyme linked immunosorbent assay (ELISA) in 384 well plate format. Hu FcRn (BPS Bioscience) was coated at 5 μg/ml on the plate in 40 mM MES, pH 6. Plates were washed 3 times with 100 ul of washing buffer (PBS, Tween 20 0.05%, pH 6) with a plate washer and saturated with Casein 5% (Sigma) in MES pH 6 for 60 minutes at room temperature (25±1° C.). Plates were washed as described previously. AFFIMER® and negative controls (mAb anti hFcRn (clone ADM31), negative controls) were then diluted in duplicate, and loaded on the plate for 90 minutes at room temperature (25±1° C.). Plates were washed 3 times as described previously. Biotinylated polyclonal antibody anti Cystatin (R&D Systems) was then diluted in dilution buffer (1% casein, 0.05% Tween 20, and 8 mM MES, pH 6) and incubated 60 minutes at room temperature (25±1° C.). Plates were washed 3 times as described previously and Streptavidin HRP (N200, Thermo-Fisher) was incubated for 30 minutes at room temperature (25±1° C.). Plates were washed and the substrate (TMB, Pierce Thermo-Scientific) was added in the plate for 8±1 minute. The reaction was stopped using an acidic solution and plates were read at 450-630 nm. The EC₅₀ was then calculated using the interpolated non-linear four-parameters standard curve (FIGS. 5A-5B and Table 5A).
row,EC50,Binder
1,50.5 nM,B9
2,187 nM,B10

# Target: T2, hFcRn with a His-tag (human, UniProt P55899 24-297; P61769 21-119)
# T2 construct: It may be the same product as m1; also called huFcRn (His tagged molecule, BPS); not shown: His-tag
# Test: BLI (Octet); ratio of KD at pH 7.4 to KD at pH 6.0
# Method: (§1) A BLI (Bio-Layer Interferometry)-based binding assay was performed for AFFIMER® screening in which the affinity to FcRn varies depending on the pH. hFcRn with a His-tag was fixed to a Ni-NTA biosensor. Thereafter, in the hFcRn and the AFFIMER® candidate group, Ni²⁺ not bound to the hFcRn was blocked using His-SQT-gly with a high concentration, in which reactivity is absent. Then, the AFFIMER® candidate group diluted to the same concentration was reacted with the hFcRn. All affimers were analyzed at pH 6.0 and pH 7.4, and KD was determined with a 1:1 binding model.
row,pH 7.4/pH 6.0 (KD ratio),Binder
1,4.3,B3
2,4.4,B4
3,6.6,B5
4,6.8,B6
5,5.5,B7

# Target: T2, hFcRn with a His-tag
# Test: BLI (Octet), His-hFcRn on Ni-NTA biosensor, Affimer 40 nM, pH 6.0
# Method: as §1
row,Response,Binder
1,1.07,B2
2,0.836,B3
3,1.12,B4
4,1.16,B5
5,1.44,B6
6,1.02,B7
7,1.2,B8

# Target: T2, hFcRn with a His-tag
# Test: BLI (Octet), His-hFcRn on Ni-NTA biosensor, Affimer 40 nM, pH 7.4
# Method: as §1
row,Response,Binder
1,0.631,B2
2,0.582,B3
3,0.71,B4
4,0.602,B5
5,0.803,B6
6,0.595,B7
7,0.794,B8

# Target: T2, hFcRn with a His-tag
# Test: BLI (Octet), His-hFcRn on Ni-NTA biosensor, Affimer 40 nM, pH 6.0, 1:1 model
# Method: as §1
row,Kd,Binder
1,20.5 nM,B2
2,28.4 nM,B3
3,18.7 nM,B4
4,9.27 nM,B5
5,8.76 nM,B6
6,10.5 nM,B7
7,16 nM,B8

# Target: T2, hFcRn with a His-tag
# Test: BLI (Octet), His-hFcRn on Ni-NTA biosensor, Affimer 40 nM, pH 7.4, 1:1 model
# Method: as §1
row,Kd,Binder
1,83.3 nM,B2
2,123 nM,B3
3,82.8 nM,B4
4,61.2 nM,B5
5,59.3 nM,B6
6,57.9 nM,B7
7,65 nM,B8

# From patent publication US20230097573A1 (LG CHEM, published 2023)
